# Measured values from patent US20250326840A1 (QURE BIOTECHNOLOGY SHANGHAI, published 2025).
# B1: QP06260279 (bispecific antibody, human IgG1, kappa, L234A L235A)
# heavy: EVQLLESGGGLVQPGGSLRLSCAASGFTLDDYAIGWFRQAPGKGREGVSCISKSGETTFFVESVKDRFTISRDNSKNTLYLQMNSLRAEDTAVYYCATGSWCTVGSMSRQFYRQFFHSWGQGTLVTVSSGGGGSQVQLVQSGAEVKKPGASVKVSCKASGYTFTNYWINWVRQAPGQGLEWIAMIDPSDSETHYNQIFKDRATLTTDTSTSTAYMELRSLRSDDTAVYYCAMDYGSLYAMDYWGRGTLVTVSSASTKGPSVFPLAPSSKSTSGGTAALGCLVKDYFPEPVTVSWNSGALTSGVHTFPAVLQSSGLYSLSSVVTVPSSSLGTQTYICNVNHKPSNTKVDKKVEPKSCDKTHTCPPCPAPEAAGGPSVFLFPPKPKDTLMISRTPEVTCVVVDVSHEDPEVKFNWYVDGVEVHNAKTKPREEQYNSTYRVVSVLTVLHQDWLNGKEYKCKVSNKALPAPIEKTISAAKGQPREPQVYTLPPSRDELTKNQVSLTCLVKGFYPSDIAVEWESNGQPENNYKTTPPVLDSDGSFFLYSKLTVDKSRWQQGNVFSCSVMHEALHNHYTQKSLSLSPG
# light: DIVLTQSPDSLAVSLGERATINCRASQSVRSSGYNWIFWYQQKPGQPPKLLIYLASNRDSGVPDRFSGSGSGTDFTLTISSLQAEDVAVYYCQHSRELPTFGQGTKLEIKRTVAAPSVFIFPPSDEQLKSGTASVVCLLNNFYPREAKVQWKVDNALQSGNSQESVTEQDSKDSTYSLSSTLTLSKADYEKHKVYACEVTHQGLSSPVTKSFNRGEC
# notes: Anti-PD-L1 VHH-G4S fused to the N-terminus of the heavy chain
# B2: QP06270279 (bispecific antibody, human IgG1, kappa, L234A L235A)
# heavy: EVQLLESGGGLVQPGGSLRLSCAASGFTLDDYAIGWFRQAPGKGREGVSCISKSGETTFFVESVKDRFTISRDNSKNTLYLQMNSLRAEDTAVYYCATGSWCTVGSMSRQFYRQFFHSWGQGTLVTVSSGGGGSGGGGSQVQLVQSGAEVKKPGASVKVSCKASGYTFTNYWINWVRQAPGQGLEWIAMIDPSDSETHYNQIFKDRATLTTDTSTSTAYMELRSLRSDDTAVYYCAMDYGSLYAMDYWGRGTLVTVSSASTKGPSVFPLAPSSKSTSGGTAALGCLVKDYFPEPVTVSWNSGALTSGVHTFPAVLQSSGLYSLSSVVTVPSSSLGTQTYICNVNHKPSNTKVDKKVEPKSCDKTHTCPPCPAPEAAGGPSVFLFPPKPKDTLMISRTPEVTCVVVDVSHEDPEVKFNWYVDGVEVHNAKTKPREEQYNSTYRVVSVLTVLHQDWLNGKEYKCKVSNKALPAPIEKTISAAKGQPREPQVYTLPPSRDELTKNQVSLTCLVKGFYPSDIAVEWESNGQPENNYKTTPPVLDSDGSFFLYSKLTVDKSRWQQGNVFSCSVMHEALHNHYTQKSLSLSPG
# light: B1 light
# notes: Anti-PD-L1 VHH-(G4S)2 fused to the N-terminus of the heavy chain
# B3: QP06280279 (bispecific antibody, human IgG1, kappa, L234A L235A)
# heavy: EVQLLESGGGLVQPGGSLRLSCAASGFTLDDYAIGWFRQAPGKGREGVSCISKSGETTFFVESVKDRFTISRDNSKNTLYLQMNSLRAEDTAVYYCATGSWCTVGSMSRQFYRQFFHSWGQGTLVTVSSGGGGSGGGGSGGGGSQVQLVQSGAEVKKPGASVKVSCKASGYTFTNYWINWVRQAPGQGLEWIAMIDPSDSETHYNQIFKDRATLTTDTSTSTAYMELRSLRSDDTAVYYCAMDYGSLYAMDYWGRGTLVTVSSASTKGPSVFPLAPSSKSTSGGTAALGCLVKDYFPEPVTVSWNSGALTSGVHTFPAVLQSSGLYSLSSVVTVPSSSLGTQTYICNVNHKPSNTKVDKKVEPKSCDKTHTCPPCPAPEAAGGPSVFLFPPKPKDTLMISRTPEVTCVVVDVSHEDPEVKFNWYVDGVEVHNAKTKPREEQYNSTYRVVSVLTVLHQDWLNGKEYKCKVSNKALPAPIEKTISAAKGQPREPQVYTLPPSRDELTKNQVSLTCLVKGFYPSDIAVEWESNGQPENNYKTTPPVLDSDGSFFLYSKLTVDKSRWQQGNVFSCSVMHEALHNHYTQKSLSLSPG
# light: B1 light
# notes: Anti-PD-L1 VHH-(G4S)3 fused to the N-terminus of the heavy chain
# B4: QP32700623 (bispecific antibody, human IgG1, kappa, L234A L235A)
# heavy: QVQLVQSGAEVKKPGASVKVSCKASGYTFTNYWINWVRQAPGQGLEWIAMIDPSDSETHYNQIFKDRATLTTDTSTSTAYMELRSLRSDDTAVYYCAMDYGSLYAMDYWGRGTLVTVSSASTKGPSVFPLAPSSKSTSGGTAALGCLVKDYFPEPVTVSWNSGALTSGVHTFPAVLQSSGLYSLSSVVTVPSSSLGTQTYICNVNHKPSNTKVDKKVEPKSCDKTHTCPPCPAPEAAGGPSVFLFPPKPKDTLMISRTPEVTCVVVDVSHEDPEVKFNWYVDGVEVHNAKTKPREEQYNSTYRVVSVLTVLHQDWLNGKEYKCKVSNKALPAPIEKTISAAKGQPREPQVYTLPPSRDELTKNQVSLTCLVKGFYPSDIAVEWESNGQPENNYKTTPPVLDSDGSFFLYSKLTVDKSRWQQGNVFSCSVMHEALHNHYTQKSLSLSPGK
# light: EVQLLESGGGLVQPGGSLRLSCAASGFTLDDYAIGWFRQAPGKGREGVSCISKSGETTFFVESVKDRFTISRDNSKNTLYLQMNSLRAEDTAVYYCATGSWCTVGSMSRQFYRQFFHSWGQGTLVTVSSGGGGSDIVLTQSPDSLAVSLGERATINCRASQSVRSSGYNWIFWYQQKPGQPPKLLIYLASNRDSGVPDRFSGSGSGTDFTLTISSLQAEDVAVYYCQHSRELPTFGQGTKLEIKRTVAAPSVFIFPPSDEQLKSGTASVVCLLNNFYPREAKVQWKVDNALQSGNSQESVTEQDSKDSTYSLSSTLTLSKADYEKHKVYACEVTHQGLSSPVTKSFNRGEC
# notes: Anti-PD-L1 VHH-G4S fused to the N-terminus of the light chain
# Molecular target: QP003 (PDL1-his)
# Experiment: ELISA, QP003 (PDL1-his) captured on coated anti-his, anti-hFc detection; unit from the x axis Log(Conc.(nM))
# QP003 (PDL1-his), sequence (chain, as listed by the source limits assumed): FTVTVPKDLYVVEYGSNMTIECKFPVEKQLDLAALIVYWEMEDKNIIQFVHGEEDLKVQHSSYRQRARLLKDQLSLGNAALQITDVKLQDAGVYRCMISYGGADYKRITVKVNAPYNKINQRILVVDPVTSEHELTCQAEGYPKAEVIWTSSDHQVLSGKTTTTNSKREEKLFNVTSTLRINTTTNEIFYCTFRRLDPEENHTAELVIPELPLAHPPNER
row,Binder,EC50
1,B1,0.0176 nM
2,B2,0.0198 nM
3,B3,0.0215 nM
4,B4,0.0205 nM
